From the RNAGym collection of RNA variant scans (doi:10.1073/pnas.2313332121)

B1: TPR t1 (parent)
chain: GACCAAUCUGCCCUCAGAGCUCGAGAACAUCUUCGGAUGCAGAGGAGGCAGGCUUCGGUGGCGCGAUAGCGCCAACGUCCUCAACCUCCAAUGCAUCCCACCACAUGAUGAUGCCUGAAGAGCCUUGGUUUUUUG

Variants of: B1
Test: polymerase ribozyme fitness, log enrichment relative to wild type (log ratio); higher = more active; in vitro selection for triplet polymerase activity
In short: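 Libraries of mutants in each subunit of a heterodimeric triplet polymerase ribozyme were generated by PCR and transcribed. In triplicate, each went through one in vitro selection round: annealing with biotinylated primer, partner subunit and triplets; frozen incubation at −7 °C; gel excision of extended constructs; streptavidin-bead capture; RT-PCR. Fitness, taken from Illumina sequencing of input and output libraries, is the logarithm of a genotype's enrichment over wild-type enrichment, averaged across replicates with inverse-variance weights. The logarithm is base 2, and genotypes needed ≥10 input reads and ≥1 read per output to be kept.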

Variant	polymerase ribozyme fitness (log ratio)
G71A G107A	-4.98
G71U A119U	-0.434
C72G U78G C97U	0.186
C72G A91C A95C A121G G128C U133G	-3.31
C72A U92A A121U U125G	-1.7
G71U C86U	-0.637
C70U U87G G120C	1.04
C72G G93U	-1.16
C72A U81C	-0.634
G71C A118U	-0.826
G71U C97A C115U A119G	-5.37
C72G C99A C114G U129A U132A G135C	-4.93
G71U C114G U132A	-2.34
C72A C114A	-1.85
C70U U87G	-0.364
C72A U125C	-1.51
C72A U125A	-0.026
C72G C86U	0.195
C72G C86G	-2.24
C72G C86A	-0.939
G71C C88U	-2.61

Variant	polymerase ribozyme fitness (log ratio)
G71U C76G	-2.91
G71U C73G	-5.51
G71A G113U	-3.89
G71A G113A	-1.22
C72G A100U G113U C124U	-4.64
C72G C102A A105C	-5.78
C72A C80U	0.231
C72G C86A U129C	-2.2
C72G A90U C101A G122A	-3.94
G71U G120A C123U U133G	-3.23
G71A C80U	-2.57
C72A U133A	0.191
C72A U131A	-0.165
C72G G122A C123G	1.99
G71A C86U	0.0346
G71A C86A	-1.85
C72A C88A G120U	-0.866
C72A G120A U130G	-0.18
C72G C88U A91C A118U G122U	-2.76
C70U U106G C124U	-1.06
C70U U109C	-3.68

Variant	polymerase ribozyme fitness (log ratio)
C72A U78G U133A	0.102
C72A G120C	1.31
G71U C98U	-2.33
C72G C80A U81G C86A	-6.59
C70U U87C C123G	2.6
C72G G77A G120A	-1.96
C72G C88U	-0.692
C72G C98A C101U G110U G120U C123G U130G	-6.41
G71C A84U C94U	-1.84
C72G C115U U116C	-2.72
C72A U81C U109A G110U U112G A121U U125A	-6.45
G71A A83C G93C A118G	-2.9
G71C A118U C124G	0.835
C72A U81A C86U U106A G128A U130A	-4.98
C72G C88A A90U	-2.14
G71A U92A C99G G120C	-7.51
G71U C94G G113C U126G	-6.21
C72A C76G C101A C115A	-1.47
G71C G120U	-0.52
G71U C80A U116G G117U A119U	-7.09
G71U A74U C104A G117A C124U	-5.66

Variant	polymerase ribozyme fitness (log ratio)
C70U U112G	-0.342
C72G C115U	-1.03
C72G C115A	-0.17
C72A A111C	-0.314
C72A A111U	-2.42
G71A C99U U106C	-5.44
G71C C80U	-4.42
C72G G77C A95G C101G	-2.74
G71C A121G	0.226
G71C C94A G113C	-4.44
C72A C94A	-0.415
C70U U87A C97U U112A C115U G127A	-4.04
C70U U132C	-0.89
C72A C102A U125G	-2.01
G71A C99U C115A U129C G135U	-5.53
G71C C102G C114U C115U G120C	-5.82
G71A U78C C123U U131A	-0.879
C70U U96C C97U C104A	-5.19
C72A G122A	-0.72
G71A C73G G110A	-7.06
G71U A83U C99A A105C C123U	-7.02
